Key:
Assay in all cases: cell-based or functional assay
[1] = target: PSMA on C42B and LNCap cells (UniProt Q04609 1-750, limits assumed)
KLK2 on VCaP cells [2] = target: T1, KLK2 on VCaP cells (UniProt P20151 25-261, limits assumed)
KLK2 on VCaP cells [3] = target: T1, KLK2 on VCaP cells; remark: listed apart in the source

Sequence of PSMA on C42B and LNCap cells (Q04609 whole entry): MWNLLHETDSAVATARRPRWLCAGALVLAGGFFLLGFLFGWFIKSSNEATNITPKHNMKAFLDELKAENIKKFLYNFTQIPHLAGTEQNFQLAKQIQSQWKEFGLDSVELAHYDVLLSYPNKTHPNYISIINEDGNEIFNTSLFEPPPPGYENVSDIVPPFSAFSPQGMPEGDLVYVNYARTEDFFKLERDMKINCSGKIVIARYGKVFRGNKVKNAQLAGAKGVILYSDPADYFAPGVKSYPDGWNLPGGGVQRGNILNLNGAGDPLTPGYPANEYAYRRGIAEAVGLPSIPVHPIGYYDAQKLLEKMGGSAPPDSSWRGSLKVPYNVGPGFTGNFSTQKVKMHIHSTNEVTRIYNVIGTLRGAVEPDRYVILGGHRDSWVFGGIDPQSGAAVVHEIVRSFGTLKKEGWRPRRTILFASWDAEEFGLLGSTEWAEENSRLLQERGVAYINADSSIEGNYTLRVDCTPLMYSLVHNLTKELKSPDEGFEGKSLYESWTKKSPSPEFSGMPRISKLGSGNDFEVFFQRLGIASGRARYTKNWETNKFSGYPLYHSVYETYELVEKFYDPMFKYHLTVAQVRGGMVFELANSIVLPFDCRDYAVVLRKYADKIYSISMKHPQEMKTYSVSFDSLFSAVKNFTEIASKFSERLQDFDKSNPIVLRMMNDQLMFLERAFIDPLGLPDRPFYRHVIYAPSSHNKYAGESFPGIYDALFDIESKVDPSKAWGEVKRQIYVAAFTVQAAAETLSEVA
T1 sequence (P20151 25-261 limits assumed): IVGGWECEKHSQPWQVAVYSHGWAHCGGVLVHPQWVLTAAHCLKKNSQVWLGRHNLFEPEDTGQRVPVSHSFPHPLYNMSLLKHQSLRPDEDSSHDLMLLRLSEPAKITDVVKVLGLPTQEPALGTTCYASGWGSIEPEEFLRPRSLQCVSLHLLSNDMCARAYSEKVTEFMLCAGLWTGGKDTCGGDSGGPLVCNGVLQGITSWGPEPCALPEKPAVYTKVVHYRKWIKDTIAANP

Row | Binder | In vitro ADCC killing EC50 (M), NK cells at 24 hour, C42B cells [1] | In vitro ADCC killing EC50 (M), NK cells at 24 hour, LNCap cells [1] | In vitro ADCC killing EC50 (M), PBMC at 6 hour, C42B cells [1] | In vitro ADCC killing EC50 (M), PBMC at 6 hour, LNCap cells [1] | ADCC activity, percent cell killing of VcaP cells by PBMC (KLK2 on VCaP cells [2]) | EC50 (M), in vitro ADCC dose-response killing by PBMC on VcaP cells at 48 hour (KLK2 on VCaP cells [3])
1 | PSMB952 (antibody, V domains shown) VH: EVQLVESGGGLVQPGGSLRLSCAASGFTFSSYAMSWVRQAPGKGLEWVSAISGGIGSTYYADSVKGRFTISRDNSKNTLWLQMNSLRAEDTAVYYCAKDGVGATPYYFDYWGQGTLVTVSS VL: QSVLTQPPSVSAAPGQKVTISCSGSSSNIGINYVSWYQQLPGTAPKLLIYDNNKRPSGIPDRFSGSKSGTSATLGITGLQTGDEADYYCGTWDSSLSAVVFGGGTKLTVL | 2.45e-11 M | 4.59e-11 M | 3.51e-10 M | 2.01e-10 M | – | –
2 | PSMB956 (antibody, V domains shown) VH: EVQLVESGGGLVQPGGSLRLSCAASGFTFSSYAMSWVRQAPGKGLEWVSAISGGSGSTYYADSVKGRFTISRDNSKNTLYLQMNSLRAEDSAVYYCAKDGVGATPYYFDYWGQGTLVTVSS VL: QSVLTQPPSVSAAPGQKVTISCSGSSSNIGINYVSWYQQLPGTAPKLLIYDNNKRPSGIPDRFSGSKSGTSATLGITGLQTGDEADYYCGTWDSSLSAVVFGGGTKLTVL | 9.96e-12 M | 3.58e-11 M | 4.23e-10 M | 1.52e-10 M | – | –
3 | KL2B870 (KL2B30 in hIgG1-RE) (antibody) heavy: not shown light: DIQMTQSPSFLSASVGDRVTITCRASQGISSYLAWYQQKPGKAPKFLIYAASTLQSGVPSRFSGSGSGTEFTLTISSLQPEDFATYYCQQLNSYPLTFGGGTKVEIKRTVAAPSVFIFPPSDEQLKSGTASVVCLLNNFYPREAKVQWKVDNALQSGNSQESVTEQDSKDSTYSLSSTLTLSKADYEKHKVYACEVTHQGLSSPVTKSFNRGEC | – | – | – | – | ~73% | 1e-09 M
4 | KL2B870.CLF (antibody, human IgG1, kappa, low fucosylation of the Asn-297-linked N-oligosaccharide (expressed in fucosylation-deficient cells)) heavy: not shown light: DIQMTQSPSFLSASVGDRVTITCRASQGISSYLAWYQQKPGKAPKFLIYAASTLQSGVPSRFSGSGSGTEFTLTISSLQPEDFATYYCQQLNSYPLTFGGGTKVEIKRTVAAPSVFIFPPSDEQLKSGTASVVCLLNNFYPREAKVQWKVDNALQSGNSQESVTEQDSKDSTYSLSSTLTLSKADYEKHKVYACEVTHQGLSSPVTKSFNRGEC | – | – | – | – | ~89% | 3.54e-10 M
5 | KL2B872.CLF (antibody, human IgG1, kappa, low fucosylation of the Asn-297-linked N-oligosaccharide (expressed in fucosylation-deficient cells)) heavy: not shown light: DIQMTQSPSFLSASVGDRVTITCRASQGISSYLAWYQQKPGKAPKFLIYAASTLQSGVPSRFSGSGSGTEFTLTISSLQPEDFATYYCQQLNSYPLTFGGGTKVEIKRTVAAPSVFIFPPSDEQLKSGTASVVCLLNNFYPREAKVQWKVDNALQSGNSQESVTEQDSKDSTYSLSSTLTLSKADYEKHKVYACEVTHQGLSSPVTKSFNRGEC | – | – | – | – | ~85% | 4.12e-10 M

From patent US20220356266A1 (Janssen / Centocor, published 2022)
